Test results: US20200080117A1 (UNIVERSIDAD POLIT CNICA DE MADRID, published 2020)

Target: T1, NifU (A. vinelandii NifU expressed in yeast strain SB33Y as SU9-NifU) (Azotobacter vinelandii, UniProt P05340 2-312)
T1 sequence: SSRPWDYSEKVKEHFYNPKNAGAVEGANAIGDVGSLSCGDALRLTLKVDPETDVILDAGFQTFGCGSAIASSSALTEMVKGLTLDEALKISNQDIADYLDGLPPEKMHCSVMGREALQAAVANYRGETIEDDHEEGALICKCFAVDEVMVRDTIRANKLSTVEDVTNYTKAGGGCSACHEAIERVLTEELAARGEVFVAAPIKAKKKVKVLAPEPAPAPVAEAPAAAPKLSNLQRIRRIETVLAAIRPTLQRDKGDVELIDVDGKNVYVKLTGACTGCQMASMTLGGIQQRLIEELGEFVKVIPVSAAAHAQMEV
Assay: co-purification on Strep-Tactin column from SB33Y extract, immunoblot

binding result: no binding
B1: TS-NifB^USF (SU9-Twin-Strep-NifBMi purified from yeast strain SB33Y, co-expressed with NifU, NifS and FdxN-HA) (enzyme)
chain: not shown
notes: Same polypeptide as m1, purified from SB33Y; As isolated it carries about 6.1 Fe per monomer as [4Fe-4S] clusters and is active; The range 68-405 was derived from the printed N-terminus SSSAW; also called SU9-TS-NifBMi
